Assay results from publication PMC8301185, “Secondary Structure of the Novel Myosin Binding Domain WYR and Implications within Myosin Structure” (Biology, 2021).
Ends that are not written are not given here.

How the values were obtained:
[1] = biological target: T1, LMM (V1346 through I1941 of D. melanogaster myosin heavy-chain) (Drosophila melanogaster, UniProt P05661); assay: Co-sedimentation assay of LMM titrated by WYR; assay type: binding
T1 construct: encompassing V1346 through I1941 of D. melanogaster myosin heavy-chain; made in house; host or cells: E. coli BL-21(DE3) pLysS
Method: A 68.9 kDa 602 aa peptide encompassing V1346 through I1941 of D. melanogaster myosin heavy-chain (herein LMM) with an N-terminal 6× His-tag cloned into pET-23a vector was transformed into E. coli BL-21(DE3) pLysS cells. Cells were grown in Luria broth (LB) containing 100 µg/mL ampicillin and 50 µg/mL chloramphenicol. Upon reaching A600 of 0.8–1.0, culture was chilled on ice for 15 min, and expression was induced by adding IPTG to 0.75 mM and incubating for 16 h at 25 °C with gentle rocking. Induced cells were collected by centrifugation at 10,000 rcf for 10 min and stored as pellets at −40 °C. Pellets were resuspended in lysis buffer described by Korkmaz et al., and lysed by sonication. […] The relative purity of each fraction was assessed via SDS-PAGE stained with Krypton (Thermo Scientific, Rockford, IL, USA). […] Protein concentration was determined via absorbance at 280 nm using an extinction coefficient of 18450 cm^−1 M^−1. […]
Synthetic, 6.6 kDa 52 aa WYR peptide encompassing H84-T136 of D. melanogaster flightin was sourced from Genscript (Piscataway, NJ, USA). Peptide was suspended in ddH2O, filtered through a 0.22 µm Millipore filter, and concentration determined by micro BCA assay and absorbance at 280 nm using an extinction coefficient of 21,430 cm^−1 M^−1. […]

[2] = biological target: T2, Myosin heavy chain, muscle (LMM) 1346-1941 (Drosophila melanogaster, UniProt P05661); assay: co-sedimentation
T2 chain: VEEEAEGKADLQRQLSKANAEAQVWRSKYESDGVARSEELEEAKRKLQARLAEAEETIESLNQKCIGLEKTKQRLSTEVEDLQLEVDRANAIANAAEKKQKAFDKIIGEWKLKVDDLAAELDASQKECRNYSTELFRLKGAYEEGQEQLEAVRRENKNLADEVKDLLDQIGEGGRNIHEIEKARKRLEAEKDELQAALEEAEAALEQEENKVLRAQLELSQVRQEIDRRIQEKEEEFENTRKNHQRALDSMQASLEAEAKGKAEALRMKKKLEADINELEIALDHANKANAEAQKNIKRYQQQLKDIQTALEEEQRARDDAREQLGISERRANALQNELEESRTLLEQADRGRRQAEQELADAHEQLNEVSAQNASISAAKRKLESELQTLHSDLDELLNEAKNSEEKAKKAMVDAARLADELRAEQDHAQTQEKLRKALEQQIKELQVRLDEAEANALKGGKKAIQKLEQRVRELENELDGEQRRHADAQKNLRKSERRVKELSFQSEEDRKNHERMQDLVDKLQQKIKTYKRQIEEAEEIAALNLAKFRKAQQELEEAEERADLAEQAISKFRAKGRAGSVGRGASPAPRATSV

[3] = Circular dichroism of LMM alone, secondary structure estimation; assay type: physicochemical; settings: for CD maximum wavelength: MRE profile, Figure S9; for helicity, range over methods: without CONTIN, CDSSTR, BeStSel; for α helical content, range over methods: all methods
Method: A 68.9 kDa 602 aa peptide encompassing V1346 through I1941 of D. melanogaster myosin heavy-chain (herein LMM) with an N-terminal 6× His-tag cloned into pET-23a vector was transformed into E. coli BL-21(DE3) pLysS cells. Cells were grown in Luria broth (LB) containing 100 µg/mL ampicillin and 50 µg/mL chloramphenicol. Upon reaching A600 of 0.8–1.0, culture was chilled on ice for 15 min, and expression was induced by adding IPTG to 0.75 mM and incubating for 16 h at 25 °C with gentle rocking. Induced cells were collected by centrifugation at 10,000 rcf for 10 min and stored as pellets at −40 °C. Pellets were resuspended in lysis buffer described by Korkmaz et al., and lysed by sonication. To purify the MHC peptide, the lysate was rocked at 4 °C with Ni-NTA-agarose resin for one hour in a 20 mL column before being rinsed with 8 column volumes of 20 mM imidazole wash-buffer. The resin was then rinsed in two 15 mL portions of each 40- and 80 mM imidazole wash buffer, with 10 min of rocking in each 15 mL portion. The peptide was eluted in six 1 mL fractions and one 12 mL fraction for a total volume of 18 mL 200 mM imidazole elution buffer. All wash and elution buffers are variants of ‘Buffer A’ described by Korkmaz et al. with the following modifications: imidazole concentration was adjusted to 20 mM, 40 mM or 80 mM for wash buffer and to 200 mM for elution buffer. The relative purity of each fraction was assessed via SDS-PAGE stained with Krypton (Thermo Scientific, Rockford, IL, USA). Selected fractions were further purified and concentrated with an Amicon Ultra-15 50k centrifugal filter, and buffer exchanged into 400 mM NaF, 20 mM sodium phosphate pH 7.0, 1 mM TCEP for storage. Protein concentration was determined via absorbance at 280 nm using an extinction coefficient of 18450 cm^−1 M^−1. Densitometry using ImageJ was carried out on Krypton stained gels to ascertain purity of the sample [23] and the peptide identity verified by mass spectrometry.
WYR and LMM samples ranging from 0.5 to 10 µM were prepared in 700 µL of 215 mM NaF, 20 mM Sodium Phosphate, pH 7, 1 mM TCEP. LMM preparations were centrifuged at 10,000 rcf for 10 min and filtered through a 0.22 µm Millipore filter. Blank samples used an equivalent volume of filtrate from the final flow through from LMM concentrators as used in the experimental samples to account for any possible trace contaminant. These blanks were checked against equivalent freshly prepared buffer. A rectangular STARNA quartz cuvette with a pathlength of 0.2 cm was used throughout. Between experiment days the cuvette received a full wash with the provided STARNA detergent in accordance to STARNA protocol. Between samples, 1× 60% EtOH and 3× dH2O rinses were carried out and residual fluid was evaporated with pressurized nitrogen.
Samples were measured at 25 °C using a Jasco J-1700 spectropolarimeter at a scanning-speed of 20 nm/min with a digital integration time (DIT) of 8 s and bandwidth of 0.5–1 nm over six accumulations, minimally from 260–190 nm on continuous scan mode. A minimum n = 6 was used for measurements of the experimental combination of LMM and WYR and an n = 10 for WYR alone in 215 mM NaF, 20 mM Sodium Phosphate, pH 7, 1 mM TCEP. Wavelengths at maxima and minima, as well as θ222/208 and θ192/208 ellipticity ratios were recorded for all spectra. […] While other analysis programs exist, BeStSel is best suited for non-helical proteins of more unusual structure through both its diverse eight element modelling and inclusion of a basis dataset that incorporates proteins with rare secondary structures. BeStSel was most appropriate given the non-helical profile of WYR along with its high aromatic content and presence of proline.
Independent spectra for each peptide were evaluated after subtracting baseline spectra. […]

T1 sequence (P05661 1-1936 isoform P05661-24): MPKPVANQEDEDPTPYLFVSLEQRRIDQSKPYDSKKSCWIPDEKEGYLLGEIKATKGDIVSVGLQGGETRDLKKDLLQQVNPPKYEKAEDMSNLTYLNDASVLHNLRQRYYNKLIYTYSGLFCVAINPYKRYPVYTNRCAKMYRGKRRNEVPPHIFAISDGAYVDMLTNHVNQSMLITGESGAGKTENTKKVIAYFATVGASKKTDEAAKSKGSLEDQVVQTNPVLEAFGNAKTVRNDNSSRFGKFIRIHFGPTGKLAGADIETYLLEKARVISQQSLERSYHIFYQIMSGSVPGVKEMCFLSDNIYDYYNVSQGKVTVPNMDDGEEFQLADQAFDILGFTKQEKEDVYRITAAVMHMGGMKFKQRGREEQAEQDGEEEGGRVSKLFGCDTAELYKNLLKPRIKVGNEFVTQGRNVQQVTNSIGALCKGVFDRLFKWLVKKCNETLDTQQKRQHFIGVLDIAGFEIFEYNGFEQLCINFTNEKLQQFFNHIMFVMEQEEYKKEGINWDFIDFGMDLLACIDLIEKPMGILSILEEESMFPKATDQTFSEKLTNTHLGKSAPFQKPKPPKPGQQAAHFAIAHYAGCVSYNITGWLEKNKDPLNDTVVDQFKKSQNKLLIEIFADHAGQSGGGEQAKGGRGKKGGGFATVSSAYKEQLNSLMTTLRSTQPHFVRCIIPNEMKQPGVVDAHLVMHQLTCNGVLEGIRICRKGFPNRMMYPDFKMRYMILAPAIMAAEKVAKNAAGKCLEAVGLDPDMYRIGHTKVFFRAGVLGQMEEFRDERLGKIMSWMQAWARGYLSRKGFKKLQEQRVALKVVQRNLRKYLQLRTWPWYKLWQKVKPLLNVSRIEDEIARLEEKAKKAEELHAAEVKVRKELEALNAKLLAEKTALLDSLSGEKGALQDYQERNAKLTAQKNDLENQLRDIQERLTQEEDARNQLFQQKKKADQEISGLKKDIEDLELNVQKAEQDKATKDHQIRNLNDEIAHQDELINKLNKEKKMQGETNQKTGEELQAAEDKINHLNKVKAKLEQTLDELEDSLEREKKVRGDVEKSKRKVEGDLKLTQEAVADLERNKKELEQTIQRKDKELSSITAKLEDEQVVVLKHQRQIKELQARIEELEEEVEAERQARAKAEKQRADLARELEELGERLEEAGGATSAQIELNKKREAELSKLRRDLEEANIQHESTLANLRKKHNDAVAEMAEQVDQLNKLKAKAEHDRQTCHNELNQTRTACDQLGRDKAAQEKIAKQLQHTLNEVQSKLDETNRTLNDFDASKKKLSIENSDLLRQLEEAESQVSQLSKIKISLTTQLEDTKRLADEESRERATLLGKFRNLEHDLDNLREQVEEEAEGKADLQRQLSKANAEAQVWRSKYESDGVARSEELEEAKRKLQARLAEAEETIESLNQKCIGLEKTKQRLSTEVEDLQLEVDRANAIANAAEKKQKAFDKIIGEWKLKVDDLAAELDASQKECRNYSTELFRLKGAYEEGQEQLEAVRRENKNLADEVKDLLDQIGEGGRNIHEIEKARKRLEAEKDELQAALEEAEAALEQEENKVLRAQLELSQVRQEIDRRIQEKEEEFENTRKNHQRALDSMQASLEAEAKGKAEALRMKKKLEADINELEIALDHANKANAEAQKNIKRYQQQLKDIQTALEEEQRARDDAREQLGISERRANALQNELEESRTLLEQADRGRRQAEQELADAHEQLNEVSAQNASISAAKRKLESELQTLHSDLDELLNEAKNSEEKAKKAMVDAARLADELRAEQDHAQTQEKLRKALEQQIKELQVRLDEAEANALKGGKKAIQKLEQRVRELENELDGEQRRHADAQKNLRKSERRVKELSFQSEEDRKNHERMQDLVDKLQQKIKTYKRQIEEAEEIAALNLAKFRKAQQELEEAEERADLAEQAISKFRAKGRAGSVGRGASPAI

HWVRPKFLQYKYMYNYRTNYYDDVIDYIDKKQTGVAREIPRPQTWAERVLRT [WYR]
Kd ([1]; Kd 95% CI, 95% confidence interval of Kd, co-sedimentation): 1550 to 2760 nM | LMM sedimenting in the presence of WYR ([1]; upon centrifugation at the WYR/LMM ratio used in CD experiments): ~ 30%

B1: Flightin (WYR domain) 84-136 (protein)
chain: HWVRPKFLQYKYMYNYRTNYYDDVIDYIDKKQTGVAREIPRPQTWAERVLRTR
Kd [2]: 2060 nM

B2: LMM: 68.9 kDa 602 aa peptide encompassing V1346 through I1941 of D. melanogaster myosin heavy-chain with an N-terminal 6× His-tag (protein, UniProt P05661 1346-1941, looked up, fragment)
chain: T2 chain
modifications: N-terminal 6xHis tag
notes: 68.9 kDa 602 aa peptide encompassing V1346 through I1941 of D. melanogaster myosin heavy-chain with an N-terminal 6× His-tag
fractional alpha helical composition ([3]; 208 nm magnitude, [LMM] 2 µM): 28.5% | fractional alpha helical composition ([3]; 208 nm magnitude, [LMM] 10 µM): 28.7% | fractional alpha helical composition ([3]; 222 nm magnitude, [LMM] 2 µM): 18.1% | fractional alpha helical composition ([3]; 222 nm magnitude, [LMM] 10 µM): 19.1% | fractional alpha helical composition ([3]; 230-240 nm slope, [LMM] 2 µM): 14.2% | fractional alpha helical composition ([3]; 230-240 nm slope, [LMM] 10 µM): 15.3% | fractional alpha helical composition ([3]; BeStSel (190-260), [LMM] 2 µM): 11.3% | fractional alpha helical composition ([3]; BeStSel (190-260), [LMM] 10 µM): 15.6% | fractional alpha helical composition ([3]; CDSSTR (SMP180), [LMM] 2 µM): 8% | fractional alpha helical composition ([3]; CDSSTR (SMP180), [LMM] 10 µM): 17.9% | fractional alpha helical composition ([3]; CONTIN (SMP180), [LMM] 10 µM): 8.2% | fractional alpha helical composition ([3]; K2D, [LMM] 2 µM): 19% | fractional alpha helical composition ([3]; K2D, [LMM] 10 µM): 22% | CD maximum wavelength ([3]; LMM 2 µM): 193-194 nm | CD maximum wavelength ([3]; LMM 10 µM (higher concentration)): 197-198 nm | 222/208 ratio ([3]; [LMM] 2 µM (low)): 1.08 | 222/208 ratio ([3]; [LMM] 10 µM (high)): 1.17 | helicity, range over methods ([3]; high concentration): 15.3 to 28.7% | α helical content, range over methods ([3]; higher LMM concentration (10 µM)): 8.2–28.7% | helicity, range over methods ([3]; low concentration): 14.2 to 28.5% | α helical content, range over methods ([3]; lower LMM concentration (2 µM)): 8–28.5%
